Results taken from patent US20230203142.

Target: human NDPK-A (nucleoside diphosphate kinase A), full-length recombinant
Sequence (chain, as listed by the source): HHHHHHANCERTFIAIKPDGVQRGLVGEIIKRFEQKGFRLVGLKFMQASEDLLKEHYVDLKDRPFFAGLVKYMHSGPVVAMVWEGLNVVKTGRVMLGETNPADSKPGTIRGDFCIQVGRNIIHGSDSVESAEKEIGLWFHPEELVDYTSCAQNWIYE

B1: human ADK (adenosine kinase), recombinant (protein)
chain: AAAEEEPKPKKLKVEAPQALRENILFGMGNPLLDISAVVDKDFLDKYSLKPNDQILAEDKHKELFDELVKKFKVEYHAGGSTQNSIKVAQWMIQQPHKAATFFGCIGIDKFGEILKRKAAEAHVDAHYYEQNEQPTGTCAACITGDNRSLIANLAAANCYKKEKHLDLEKNWMLVEKARVCYIAGFFLTVSPESVLKVAHHASENNRIFTLNLSAPFISQFYKESLMKVMPYVDILFGNETEAATFAREQGFETKDIKEIAKKTQALPKMNSKRQRIVIFTQGRDDTIMATESEVTAFAVLDQDQKEIIDTNGAGDAFVGGFLSQLVSDKPLTECIRAGHYAASIIIRRTGCTFPEKPDFH
activity of recombinant NDPK to generate ADP (ADP-Glo): addition of recombinant ADK significantly reduced the activity of NDPK to generate ADP
